Data on one substance can be found in PMC8546227.

The test deals with Hoc^-Soc^- T4 phage capsid (bacteriophage T4) (UniProt P19896). The test is described as follows: co-sedimentation.

pKd: −log10 of the molar value.

UniProt P19896, sequence (P19896 whole entry, looked up): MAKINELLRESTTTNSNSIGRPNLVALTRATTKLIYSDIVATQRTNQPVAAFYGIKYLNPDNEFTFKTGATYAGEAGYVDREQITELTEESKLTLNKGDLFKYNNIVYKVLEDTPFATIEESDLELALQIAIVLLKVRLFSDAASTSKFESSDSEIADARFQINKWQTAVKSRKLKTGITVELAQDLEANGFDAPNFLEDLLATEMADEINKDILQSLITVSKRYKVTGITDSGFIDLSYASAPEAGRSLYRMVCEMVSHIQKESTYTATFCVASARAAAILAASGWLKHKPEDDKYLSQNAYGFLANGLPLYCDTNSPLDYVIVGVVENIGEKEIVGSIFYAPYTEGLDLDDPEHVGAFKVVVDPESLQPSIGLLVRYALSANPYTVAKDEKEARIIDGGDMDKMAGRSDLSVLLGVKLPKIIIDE

“Soc-3M2e fusion protein (RB69 Soc with three tandem copies of M2e from human, swine and avian influe”: the negative logarithm of the Kd (pKd) (in general, −log10 of the Kd, conventionally taken in molar units) is 6.52.
